In publication PMC5435912:

How the values were obtained:
[1] = target: CdiI^Ykris-His6, immunity protein of Yersinia kristensenii ATCC 33638 (Yersinia kristensenii ATCC 33638); experiment: BLI
[2] = target: bovine pancreatic RNase A, biotinylated (bovine) (UniProt P61823); experiment: BLI
Sequence of UniProt P61823 (P61823 27-150): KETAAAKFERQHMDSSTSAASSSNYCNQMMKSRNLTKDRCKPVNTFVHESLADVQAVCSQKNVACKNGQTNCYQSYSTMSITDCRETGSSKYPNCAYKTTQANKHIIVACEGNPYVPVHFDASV

| Kd [2] | Substance | Kd [1] |
| --- | --- | --- |
| – | CdiA-CT^Ykris, C-terminal toxin region of CdiA from Yersinia kristensenii ATCC 33638 (domain or fragment) | 40.9 nM |
| 1950 nM | CdiI^Ykris-His6, immunity protein of Yersinia kristensenii ATCC 33638 (natural protein) | – |
